Assay results reported in PMC5655499, “Peptide array-based screening reveals a large number of proteins interacting with the ankyrin-repeat domain of the zDHHC17 S-acyltransferase” (The Journal of Biological Chemistry, 2017).

B1: SNAP25 15-mer peptide (wild type) containing the zDABM [not stated] / His6-tagged AR domain (residues 51–288) of zDHHC17 [human] (parent)
chain 1: THIDDYSTWDIVKATQYGIYERCRELVEAGYDVRQPDKENVTLLHWAAINNRIDLVKYYISKGAIVDQLGGDLNSTPLHWATRQGHLSMVVQLMKYGADPSLIDGEGCSCIHLAAQFGHTSIVAYLIAKGQDVDMMDQNGMTPLMWAAYRTHSVDPTRLLLTFNVSVNLGDKYHKNTALHWAVLAGNTTVISLLLEAGANVDAQNIKGESALDLAKQRKNVWMINHLQEARQAKGYDN
chain 2: QDGVVASQPARVVDE
B2: CSPα 15-mer peptide (wild type) containing the zDABM [not stated] / His6-tagged AR domain (residues 51–288) of zDHHC17 [human] (parent)
chain 1: B1 chain 1
chain 2: TDTPIVIQPASATET

Variants of: B1
Experiment: far-Western blotting on peptide array
Conditions: with His6-tagged AR domain (residues 51–288) of zDHHC17 [human]; ARzD17-His 500 nm in PBS-T, overnight, 4 °C
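Note: PSSM score: binding signal versus wild type scaled to sum 1 per position.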

Screen value, < 0.005:
chain 2 A10D
chain 2 Q8H
chain 2 Q8N
chain 2 Q8W
chain 2 Q8V
chain 2 Q8F
chain 2 Q8E
chain 2 Q8Y
chain 2 Q8D
chain 2 Q8A
chain 2 Q8G
chain 2 Q8T
chain 2 Q8P
chain 2 Q8I
chain 2 Q8S
chain 2 P9R
chain 2 P9G
chain 2 P9W
chain 2 P9C
chain 2 P9N
chain 2 P9T
chain 2 P9D
chain 2 P9F
chain 2 P9M
chain 2 P9V
chain 2 P9E
chain 2 P9H
chain 2 P9A
chain 2 P9L
chain 2 P9S
chain 2 P9Q
chain 2 P9Y
chain 2 P9K
chain 2 V12E
chain 2 V12D
chain 2 A6P
chain 2 A6G
chain 2 S7P
chain 2 S7G
chain 2 R11T
chain 2 R11L
chain 2 R11F
chain 2 R11Y
chain 2 R11D
chain 2 R11N
chain 2 R11V
chain 2 R11E
chain 2 R11M
chain 2 R11I
chain 2 R11Q
chain 2 V4E
chain 2 V4D
chain 2 V4Q
chain 2 V4Y
chain 2 V4N
chain 2 V4W
chain 2 V4K
chain 2 V4T
chain 2 V4S
chain 2 V4F
chain 2 V4A
chain 2 V4R
chain 2 V4M
chain 2 V4G
chain 2 V4L
chain 2 V4H
chain 2 V5M
chain 2 V5Y
chain 2 V5N
chain 2 V5T
chain 2 V5K
chain 2 V5D
chain 2 V5L
chain 2 V5G
chain 2 V5E
chain 2 V5W
chain 2 V5Q
chain 2 V5H
chain 2 V5S
chain 2 V5P
chain 2 V5A

Variants of: B2
Experiment: far-Western blotting on peptide array
Conditions: with His6-tagged AR domain (residues 51–288) of zDHHC17 [human]; ARzD17-His 500 nm in PBS-T, overnight, 4 °C

Screen value, < 0.005:
chain 2 S11D
chain 2 S11E
chain 2 I7P
chain 2 A10D
chain 2 V6G
chain 2 V6P
chain 2 V6A
chain 2 V6D
chain 2 P9N
chain 2 P9T
chain 2 P9A
chain 2 P9I
chain 2 P9F
chain 2 P9R
chain 2 P9V
chain 2 P9G
chain 2 P9H
chain 2 P9E
chain 2 P9Y
chain 2 P9Q
chain 2 P9D
chain 2 P9M
chain 2 P9W
chain 2 P9L
chain 2 P9C
chain 2 P9K
chain 2 P9S
chain 2 P4K
chain 2 P4S
chain 2 P4M
chain 2 P4R
chain 2 P4D
chain 2 P4F
chain 2 P4L
chain 2 P4Q
chain 2 P4N
chain 2 P4Y
chain 2 Q8W
chain 2 Q8D
chain 2 Q8G
chain 2 Q8Y
chain 2 Q8A
chain 2 Q8L
chain 2 Q8K
chain 2 Q8F
chain 2 Q8R
chain 2 Q8P
chain 2 Q8H
chain 2 Q8I
chain 2 Q8E
chain 2 Q8N
chain 2 Q8T
chain 2 Q8S
chain 2 Q8V
chain 2 I5S
chain 2 I5E
chain 2 I5K
chain 2 I5R
chain 2 I5F
chain 2 I5M
chain 2 I5Y
chain 2 I5A
chain 2 I5L
chain 2 I5T
chain 2 I5H
chain 2 I5P
chain 2 I5W
chain 2 I5G
chain 2 I5N
chain 2 I5Q
chain 2 I5D
